Binding capacity of the wild type and binding compared to wild type TG2 data for two substances are collected here from US20140199325A1.

This test has as its target fibronectin (FN). In words: solid phase ELISA, HEK293T/17 lysate on FN-coated wells, detected with Cub7402, normalised for expression.

Chain of fibronectin (FN) (P02751 32-2477): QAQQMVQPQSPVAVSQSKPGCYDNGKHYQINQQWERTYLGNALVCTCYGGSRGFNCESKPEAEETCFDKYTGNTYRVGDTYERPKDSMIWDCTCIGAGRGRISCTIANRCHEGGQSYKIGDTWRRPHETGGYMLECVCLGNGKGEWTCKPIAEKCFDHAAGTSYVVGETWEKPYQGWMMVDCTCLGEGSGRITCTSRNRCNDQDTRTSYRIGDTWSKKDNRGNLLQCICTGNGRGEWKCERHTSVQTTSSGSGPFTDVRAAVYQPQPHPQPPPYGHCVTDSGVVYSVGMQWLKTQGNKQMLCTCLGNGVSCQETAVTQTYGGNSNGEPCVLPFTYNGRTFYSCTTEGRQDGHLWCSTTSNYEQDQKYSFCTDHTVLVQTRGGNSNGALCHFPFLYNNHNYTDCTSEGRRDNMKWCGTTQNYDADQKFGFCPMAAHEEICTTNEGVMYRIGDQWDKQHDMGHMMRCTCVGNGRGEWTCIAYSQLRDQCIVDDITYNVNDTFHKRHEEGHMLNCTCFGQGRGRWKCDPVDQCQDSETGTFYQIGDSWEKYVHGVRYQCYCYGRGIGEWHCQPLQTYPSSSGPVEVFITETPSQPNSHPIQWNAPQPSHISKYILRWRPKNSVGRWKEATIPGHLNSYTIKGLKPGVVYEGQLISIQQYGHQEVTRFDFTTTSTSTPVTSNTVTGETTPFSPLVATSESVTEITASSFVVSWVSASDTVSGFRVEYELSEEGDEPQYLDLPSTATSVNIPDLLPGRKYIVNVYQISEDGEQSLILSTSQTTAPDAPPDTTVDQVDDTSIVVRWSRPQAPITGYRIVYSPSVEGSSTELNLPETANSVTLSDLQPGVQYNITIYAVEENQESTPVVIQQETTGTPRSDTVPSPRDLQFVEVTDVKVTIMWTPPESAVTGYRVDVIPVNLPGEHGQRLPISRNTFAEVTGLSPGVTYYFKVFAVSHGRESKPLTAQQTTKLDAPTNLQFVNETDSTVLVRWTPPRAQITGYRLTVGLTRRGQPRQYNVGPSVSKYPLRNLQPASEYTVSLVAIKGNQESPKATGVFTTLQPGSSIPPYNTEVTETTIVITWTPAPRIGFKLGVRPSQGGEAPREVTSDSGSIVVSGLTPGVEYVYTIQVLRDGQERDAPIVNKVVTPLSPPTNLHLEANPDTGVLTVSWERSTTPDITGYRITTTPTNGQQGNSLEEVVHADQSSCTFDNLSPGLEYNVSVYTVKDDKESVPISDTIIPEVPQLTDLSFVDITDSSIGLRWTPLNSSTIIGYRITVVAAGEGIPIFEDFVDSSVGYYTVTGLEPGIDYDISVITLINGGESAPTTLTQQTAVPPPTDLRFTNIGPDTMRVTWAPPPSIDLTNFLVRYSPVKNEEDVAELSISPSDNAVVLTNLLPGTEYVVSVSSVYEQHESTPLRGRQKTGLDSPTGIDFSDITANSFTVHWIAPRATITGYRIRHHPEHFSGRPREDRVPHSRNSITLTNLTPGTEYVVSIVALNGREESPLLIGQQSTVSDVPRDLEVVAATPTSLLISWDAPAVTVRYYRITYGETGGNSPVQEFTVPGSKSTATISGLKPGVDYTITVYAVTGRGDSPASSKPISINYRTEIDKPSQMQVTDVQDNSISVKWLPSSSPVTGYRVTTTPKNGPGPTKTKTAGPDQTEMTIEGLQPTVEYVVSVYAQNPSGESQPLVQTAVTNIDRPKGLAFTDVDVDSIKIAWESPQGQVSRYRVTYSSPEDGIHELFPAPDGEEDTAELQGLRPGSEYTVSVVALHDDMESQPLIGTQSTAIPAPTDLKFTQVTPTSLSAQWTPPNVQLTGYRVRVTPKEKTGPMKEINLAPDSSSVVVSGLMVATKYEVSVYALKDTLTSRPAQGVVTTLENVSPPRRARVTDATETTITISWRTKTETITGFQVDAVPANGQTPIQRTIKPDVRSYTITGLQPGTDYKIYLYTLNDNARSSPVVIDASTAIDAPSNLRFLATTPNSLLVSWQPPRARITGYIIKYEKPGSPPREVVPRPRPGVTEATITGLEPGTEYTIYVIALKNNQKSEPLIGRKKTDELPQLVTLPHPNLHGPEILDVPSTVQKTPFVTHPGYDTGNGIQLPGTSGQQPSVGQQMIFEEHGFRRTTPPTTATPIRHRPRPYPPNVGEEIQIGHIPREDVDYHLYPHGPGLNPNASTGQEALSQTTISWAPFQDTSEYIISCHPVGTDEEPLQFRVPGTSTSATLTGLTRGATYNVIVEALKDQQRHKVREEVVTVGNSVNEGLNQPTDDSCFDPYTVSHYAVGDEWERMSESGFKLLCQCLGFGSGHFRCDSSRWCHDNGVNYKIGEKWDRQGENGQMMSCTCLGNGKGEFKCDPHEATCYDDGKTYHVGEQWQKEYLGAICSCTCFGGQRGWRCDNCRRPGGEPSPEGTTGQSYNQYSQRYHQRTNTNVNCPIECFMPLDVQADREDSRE

In turn, “N-terminal deletion product of TG2 (Δ1-15) (from UniProt P21980 16-687) (enzyme)” came in with a binding capacity of the wild type of 40%.
“TG2 FN binding site mutant (D94A, D97A) (from UniProt P21980 2-687) (enzyme)” showed a binding compared to wild type TG2 of 50%.
